# Data: PMC3736172 (Scientific Reports, 2013)
# Read-outs that look alike come from different tables or passages of the source.
# T1: SPase (Rhodopirellula baltica, UniProt Q7UIS9)
# T1 sequence (Q7UIS9 1-571): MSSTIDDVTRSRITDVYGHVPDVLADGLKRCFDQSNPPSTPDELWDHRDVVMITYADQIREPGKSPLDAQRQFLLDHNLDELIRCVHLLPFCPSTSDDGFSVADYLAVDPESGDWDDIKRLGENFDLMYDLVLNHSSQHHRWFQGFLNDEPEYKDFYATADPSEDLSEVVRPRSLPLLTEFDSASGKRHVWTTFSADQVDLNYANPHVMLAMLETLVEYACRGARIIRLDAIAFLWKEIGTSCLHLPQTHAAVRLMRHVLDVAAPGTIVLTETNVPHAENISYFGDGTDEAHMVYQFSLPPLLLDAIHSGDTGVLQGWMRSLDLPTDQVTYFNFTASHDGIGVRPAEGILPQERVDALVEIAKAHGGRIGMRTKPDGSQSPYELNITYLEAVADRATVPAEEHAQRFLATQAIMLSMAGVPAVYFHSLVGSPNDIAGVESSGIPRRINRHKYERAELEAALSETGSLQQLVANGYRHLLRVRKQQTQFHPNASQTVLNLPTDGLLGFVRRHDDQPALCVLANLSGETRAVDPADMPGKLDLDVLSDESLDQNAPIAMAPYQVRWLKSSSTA
# How the values were obtained:
# SPase = target: T1, SPase; assay: turnover to fructose and glucose-1-phosphate; type: cell-based; conditions: recombinant enzyme
# SEC [1] = target: the molecule itself; assay: SEC
# SEC [2] = target: the molecule itself; assay: SEC; remark: listed apart in the source
molecule,measurement,setting,value
OC[C@H]1O[C@@](CO)(O[C@H]2O[C@H](CO)[C@@H](O)[C@H](O)[C@H]2O)[C@@H](O)[C@@H]1O [sucrose],turnover to fructose and glucose-1-phosphate,SPase,it catalyzed the conversion of sucrose to fructose and glucose-1-phosphate
"glucosyl-3-phosphoglycerate synthase (GpgS) from Rhodopirellula baltica, recombinant 398-amino acid enzyme (enzyme) PDFYQHDMITTIHDLRSAKLDNLESMLRESTRNHDIGLVLPVTASDMRAEPFDVIVRELAQADYIASIVVSLGVAPDQSDYDETCAKIAPLGDRAKVLWTDGPEVQGLYNELIESGIDVSVPGKGRSVWTAFGYLLDDPDIETFVLHDCDIVDYDRQLLTRLCLPMVHPGLDFEFCKAYYARVTDRMHGRVVRLLVAPLLRALMQCFPENQFVRFLGNFRYPLSGEFSLTRNLARTNRVASDWGLEVGTLADVYRNTSHKRVCQVDLARLYEHKHQTLAVDQPSSGLIKMALDILTTIYRTLASQGIVFGESTFVTLRASFLRIAQDCIRQYAADARVNSLKYDRHSEEMAIEAFAQCVTQAGEIFAADPSGNPSIPNWTRVRAAFPDFTSRLRETVK",stoichiometry N,SEC [1],5
"mannosylglucosyl-3-phosphoglycerate synthase (MggA) from Rhodopirellula baltica, recombinant (enzyme) MKISAMKILIVHCHFERGGVTQVVDNHVHCLQGSDEIDEVALVSGPRQSGLQETTRSSASIWRIASLEYDSLRDTSLNVDEQAQNDKQAQHTAREIDERCRQAGWTRQETVVHWHNHSLGKNAASPLVIKHLADFGYSCLLQIHDFAEDQRPQNWAYLKQSHGCEKASELDAILYPHGDRLSYATLTTGDAETLVQFGIHRSRVDVLPNSVRLPTDELPEFEVATHKVQRAFDLPADFRWMLYPVRGIRRKNLGEFLLMCQLAGRPTIGAMTLMPDTPMEKRSYERWQAVAERCVENVVFNAAHHEDIQFVDNLSAASVVVSSSVAEGFGMVFLEPWLASRSVVARNLPGVTGDFINHGMRLEHLYDAVQIPGSHSWLTEANRQFQNAKTDAWKDVRRDVETALSPSASDQSISDANEWIDFARLTPAMQIEVLVRFNTDSGFAKEVRDRNAALCDALVTDARPEIIDYNRNIVAANFGPENQKQQLLNAYRKAISNESIPGTGVQNDQTMLELVENSRPFYPCRVEQLD",stoichiometry N,SEC [2],2
